# Laboratory results as given in patent publication US20230406951A1 (Pfizer, published 2023).
# Residue numbers refer to the chain shown, from its start.
# T1: human TNFR2 (human, UniProt P20333 23-461)
# T1 construct: expressed on the surface of CHO cells; also called HuTNFR2; TNFRSF1B
# T1 sequence: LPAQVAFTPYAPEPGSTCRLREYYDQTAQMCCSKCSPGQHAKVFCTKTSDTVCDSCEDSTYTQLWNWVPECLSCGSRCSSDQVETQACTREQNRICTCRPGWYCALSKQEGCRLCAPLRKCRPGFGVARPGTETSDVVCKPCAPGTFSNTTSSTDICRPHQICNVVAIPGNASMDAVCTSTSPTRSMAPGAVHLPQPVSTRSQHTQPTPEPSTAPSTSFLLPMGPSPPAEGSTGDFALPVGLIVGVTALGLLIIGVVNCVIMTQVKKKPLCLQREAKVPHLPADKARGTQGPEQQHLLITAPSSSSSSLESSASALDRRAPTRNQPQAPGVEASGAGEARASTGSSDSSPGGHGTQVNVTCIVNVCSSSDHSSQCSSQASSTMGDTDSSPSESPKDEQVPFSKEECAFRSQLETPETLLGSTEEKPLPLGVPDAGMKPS
# T2: human TNFR2 (human, UniProt P20333 23-461)
# T2 construct: Human TNFR2 over-expressed on CHO cells, full length on transduced NF-KB-GFP Jurkat cells, or native on human primary T cells; also called Hu TNFR2; TNFRSF1B
# T2 sequence: T1 sequence
# B1: IgG 1990 (antibody, name in Kabat numbering, V domains shown)
# VH: QVQLVQSGAEVKKPGASVKVSCKVSGFSFPSSGVDWVRQAPGQGLEWLGVTHGSGSTHYNQKFQGRVTITKDTSKSTVYMELSSLRSEDTAVYYCASGEHDEGFVYWGQGTLVTVSS
# VL: DIQLTQSPSFLSASVGDRVTITCKASQNVGTAVAWYQQKPGKAPKLLIYAASTLQSGVPSRFSGSGSGTEFTLTISSLQPEDFATYYCQQYNSYPFGGGTKVEIKR
# notes: IgG
# B2: IgG 1980 (antibody, name in Kabat numbering, V domains shown)
# VH: B1 VH with H52R, S54E, H100Q
# VL: B1 VL
# notes: IgG
# B3: IgG 1997 (antibody, name in Kabat numbering, V domains shown)
# VH: B1 VH with H52R, S54E, H100S, D101T
# VL: B1 VL with N92Y, Y94T
# notes: IgG
# B4: IgG 2203 (antibody, name in Kabat numbering, V domains shown)
# VH: B1 VH with H52W, S54V, H100W
# VL: B1 VL with N92Y, Y94T
# notes: IgG
# B5: IgG 1991 (antibody, name in Kabat numbering, V domains shown)
# VH: B1 VH with H100R
# VL: B1 VL
# notes: IgG
# B6: IgG 1989 (antibody, name in Kabat numbering, V domains shown)
# VH: B1 VH with H100S, D101T
# VL: B1 VL
# notes: IgG
# B7: IgG 2002 (antibody, name in Kabat numbering, V domains shown)
# VH: B1 VH with H52F, G53Q, S54E
# VL: B1 VL with N92Y, Y94T
# notes: IgG
# B8: IgG 1987 (antibody, name in Kabat numbering, V domains shown)
# VH: B1 VH with H52L, S54H, H100R
# VL: B1 VL
# notes: IgG
# B9: IgG 2202 (antibody, name in Kabat numbering, V domains shown)
# VH: B1 VH with H52W, S54V, H100W
# VL: B1 VL
# notes: IgG
# B10: IgG 1982 (antibody, name in Kabat numbering, V domains shown)
# VH: B1 VH with H52F, G53Q, S54E
# VL: B1 VL
# notes: IgG
# B11: TetraFab 2084 (antibody)
# heavy: QVQLVQSGAEVKKPGASVKVSCKVSGFSFPSSGVDWVRQAPGQGLEWLGVTRGEGSTHYNQKFQGRVTITKDTSKSTVYMELSSLRSEDTAVYYCASGEWDEGFVYWGQGTLVTVSSASTKGPSVFPLAPSSKSTSGGTAALGCLVKDYFPEPVTVSWNSGALTSGVHTFPAVLQSSGLYSLSSVVTVPSSSLGTQTYICNVNHKPSNTKVDKKVEPKSCGGGGSQVQLVQSGAEVKKPGASVKVSCKVSGFSFPSSGVDWVRQAPGQGLEWLGVTRGEGSTHYNQKFQGRVTITKDTSKSTVYMELSSLRSEDTAVYYCASGEWDEGFVYWGQGTLVTVSSASTKGPSVFPLAPSSKSTSGGTAALGCLVKDYFPEPVTVSWNSGALTSGVHTFPAVLQSSGLYSLSSVVTVPSSSLGTQTYICNVNHKPSNTKVDKKVEPKSCDKTHTCPPCPAPEAAGAPSVFLFPPKPKDTLMISRTPEVTCVVVDVSHEDPEVKFNWYVDGVEVHNAKTKPREEQYNSTYRVVSVLTVLHQDWLNGKEYKCKVSNKALPAPIEKTISKAKGQPREPQVYTLPPSREEMTKNQVSLTCLVKGFYPSDIAVEWESNGQPENNYKTTPPVLDSDGSFFLYSKLTVDKSRWQQGNVFSCSVMHEALHNHYTQKSLSLSPGK
# light: DIQLTQSPSFLSASVGDRVTITCKASQNVGTAVAWYQQKPGKAPKLLIYAASTLQSGVPSRFSGSGSGTEFTLTISSLQPEDFATYYCQQYNSYPFGGGTKVEIKRTVAAPSVFIFPPSDEQLKSGTASVVCLLNNFYPREAKVQWKVDNALQSGNSQESVTEQDSKDSTYSLSSTLTLSKADYEKHKVYACEVTHQGLSSPVTKSFNRGEC
# notes: TetraFab
# B12: TetraFab 2206 (antibody, human IgG1, kappa, name in Kabat numbering)
# heavy: B11 heavy with R52W, E54V, R277W, E279V
# light: DIQLTQSPSFLSASVGDRVTITCKASQNVGTAVAWYQQKPGKAPKLLIYAASTLQSGVPSRFSGSGSGTEFTLTISSLQPEDFATYYCQQYNSYPFGGGTKVEIKRTVAAPSVFIFPPSDEQLKSGVTASVVCLLNNFYPREAKVQWKVDNALQSGNSQESVTEQDSKDSTYSLSSTLTLSKADYEKHKVYACEVTHQGLSSPVTKSFNRGEC
# notes: TetraFab; parental heavy chain
# B13: TetraFab 2112 (antibody)
# heavy: B11 heavy with R52K, E54Q, R277K, E279Q
# light: B11 light with N92Y, Y94T
# notes: TetraFab
# B14: TetraFab 2099 (antibody)
# heavy: B11 heavy with W100Q, W325Q
# light: B11 light
# notes: TetraFab
# B15: TetraFab 2096 (antibody)
# heavy: B11 heavy with W100S, D101T, W325S, D326T
# light: B11 light
# notes: TetraFab
# B16: TetraFab 2098 (antibody)
# heavy: B11 heavy with W100R, W325R
# light: B11 light
# notes: TetraFab
# B17: TetraFab 2207 (antibody, human IgG1, kappa, name in Kabat numbering)
# heavy: B11 heavy with R52W, E54V, R277W, E279V
# light: B12 light with N92Y, Y94T
# notes: as for B12
# B18: TetraFab 2125 (antibody)
# heavy: B11 heavy with W100S, D101T, W325S, D326T
# light: B11 light with N92Y, Y94T
# notes: TetraFab
# B19: TetraFab 2113 (antibody)
# heavy: B11 heavy
# light: B11 light with N92Y, Y94T
# notes: TetraFab
# B20: TetraFab 2087 (antibody)
# heavy: B11 heavy with R52H, E54S, R277H, E279S
# light: B11 light
# notes: TetraFab
# B21: TetraFab 2108 (antibody)
# heavy: B11 heavy with R52H, E54S, W100S, D101T, R277H, E279S, W325S, D326T
# light: B11 light
# notes: TetraFab
# B22: TetraFab 2118 (antibody)
# heavy: B11 heavy with R52W, E54V, W100H, R277W, E279V, W325H
# light: B11 light with N92Y, Y94T
# notes: TetraFab
# B23: TetraFab 2106 (antibody)
# heavy: B11 heavy with R52L, E54H, W100R, R277L, E279H, W325R
# light: B11 light
# notes: TetraFab
# B24: TetraFab 2109 (antibody)
# heavy: B11 heavy with R52H, E54S, W100H, R277H, E279S, W325H
# light: B11 light
# notes: TetraFab
# B25: clone 1774 (antibody, V domains shown)
# VH: B1 VH with H52W, S54V, T73N, H100W
# VL: DIQLTQSPSFLSASVGDRVTITCKASQNVGTAVAWYQQKPGKAPKLLIYSASNRYTGVPSRFSGSGSGTEFTLTISSLQPEDFATYYCQQYSSYPLTFGGGTKVEIK
# B26: clone 1773 (antibody, name in Kabat numbering, V domains shown)
# VH: B1 VH with H52W, S54V, T73N, H100W
# VL: B25 VL with S50A, N53T, R54L, Y55Q, T56S
# B27: clone 1766 (antibody, V domains shown)
# VH: B1 VH with H52W, S54V, H100W
# VL: B25 VL
# Target: human TNFR2 (human) (UniProt P20333)
# Experiment: cell-based or functional assay
"EC50 Jurkat assay, With aggregates","EC50 Jurkat assay, Without aggregates",Loss of potency (without against with aggregates),Molecule
0.12 µg/mL,5.75 µg/mL,50 fold,"MR2-1 (Hycult Biotech, ref #HM2007) (antibody)"

# Target: T1, human TNFR2
# Experiment: binding to human TNFR2 CHO cells
row,binding result,Molecule
1,no binding,B1
2,no binding,B2
3,no binding,B3
4,no binding,B4
5,no binding,B5
6,no binding,B6
7,no binding,B7
8,no binding,B8
9,no binding,B9
10,no binding,B10
11,no binding,B11
12,no binding,B12
13,no binding,B13
14,no binding,B14
15,no binding,B15
16,no binding,B16
17,no binding,B17
18,no binding,B18
19,no binding,B19
20,no binding,B20
21,no binding,B21
22,no binding,B22
23,no binding,B23
24,no binding,B24

# Target: T2, human TNFR2
# Experiment: binding to human TNFR2 CHO cells
row,EC50,Molecule
1,1.56 nM,B25
2,1.13 nM,B26
3,1.19 nM,B27
